pKd: −log10 of the molar value.
Key:
[1] = molecular target: Mouse P-gp-ECL13&4-h19 (mouse) (UniProt P21447); test: flow cytometry on cells; UIC2 shift assay: HeLa cells incubated 5 min at 37 °C with DMSO or 20 µM cyclosporine A before UIC2 at saturated concentration (3 µg/100,000 cells), 30 min; FITC-labeled anti-mouse secondary antibody
[2] = molecular target: Mouse P-gp-ECL1&4-h18 (mouse) (UniProt P21447); test: as above
[3] = molecular target: Mouse P-gp-ECL13&4-h19 (mouse) (UniProt P21447); test: flow cytometry on cells; apparent Kd; HeLa cells expressing the P-gp variant (300,000 cells/assay) stained with UIC2 at 0.01 to 3 µg per 100,000 cells for 30 min at 37 °C; GraphPad Prism
[4] = molecular target: Mouse P-gp-ECL1&4-h18 (mouse) (UniProt P21447); test: as above

fold increase of UIC2 binding after 20 µM cyclosporine A against DMSO [1]: 1.2 to 1.4 fold | fold increase of UIC2 binding after 20 µM cyclosporine A against DMSO [2]: 1.4 to 1.7 fold | pKd [3]: 8.29 | pKd [4]: 7.93
Substance: UIC2 monoclonal antibody

From paper PMC6109178
